# Source: the nanobody polyreactivity screen of Harvey et al. (2022)
# Experiment: yeast display, Sf9 membrane polyspecificity reagent, FACS + sequencing; frameworks hold sequencing errors
# Summary of the method: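 A synthetic nanobody library was expressed on Saccharomyces cerevisiae BJ5465 by galactose induction for 36–48 hours. The library was stained for 1 hour at 4 °C with 10% biotinylated, detergent-solubilized Sf9 membrane reagent and enriched with streptavidin microbeads before FACS. Low and high (top ~1%) gates were set on anti-HA fluorescence for expression and streptavidin fluorescence for reagent binding, and each polyreactivity label reflects the gate of origin.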
row,Sequence,polyreactivity (PSR sort gate)
1,QVQLVESGGGLVQAGGSLRLTCAASGSIFRINAMGWYRQEPGKEREFVAVITSRTGNTYYADSVKGRFTISRDNAKNTVYLQMNSLKPEDTAVYYCAADYPPARWEMEYWGQGTQVTVSS,low polyreactivity
2,QVQLVESGGGLVQAGGSLRLSCAASGRIFTRNAMGWYRQAPGKEREFVAAISSSGSSTYFADSVKGRFTISRDNAKNTVYLQMNSLKPEDTAVYYCAARVTSPVSHDRVDYWGQGTQVTVSS,high polyreactivity
3,QVQLVESGGGLVQAGGSLRLSCAASGFIFVHNAMGWYRPAPGKERELVAAIRSRGGSTYYADSVKGRFTISRDNAKNTVYLQMNSLKPEDTAVDDCAADGAVVSSSRKFGYWGQGTQVTVSS,low polyreactivity
4,QVQLVESGGGLVQAGGSLRFSCAASGSTFPSYAMGWYRQAPGKERELVAAITNGGSTTYADSVKGRFTISRDNAKITDYLQMNSLKPEDTAVYYCAARYYYYYYIRRDYWGQGTQVTVSS,low polyreactivity
5,QVQLVESGGGLVQAGGSLRLSCAASGRTFGSNAMGWYRQAPGKERELVAAITSGGGTYYADSVKGRFTISRDNAKNTVYLQMNSLKPEDTAVYYCNKLGTSFRRDYGSWGQGTQVTVSS,low polyreactivity
6,QDQLVESGGGLVQAGGSLRLSCAASGGTFGLNAMGWYRQAPGKERELVADIDGRGGCTYYADSVKGRFTISRDNAQNTVYLQMNSLKPEDTAVYYCAARAPFLSVPTELDYWGQGTQVSVSS,low polyreactivity
7,QVQLVESGGGLVQEGGSLRLSCAASGRTFGYYVMGWYRQAPGKERELVAAISNTDSTYYADSVKGRFTISRDNAKNSVYLQMNSLKPEDTAVYYCDKDGRTVAYTWTRTHYYWGQGTQVTVSS,low polyreactivity
8,QVQLVESGGGLVQAGGSLRLSCAASGFIITQYAMGWYSQEPGKERELVAAISGNGGRTYYADSVKGRFTISRDNAKYTVYLHLISLKPEDTAVYYCAVTYYWYGVRYDYWGQCTQVTVSS,high polyreactivity
9,QVQLVESGGGLVQAGGSLRISSAPSGITYYGNVMGWYRQAPGKERELVADISWSGGRTYYADSVKGRFTISRDNAKNTVYLQITSLKPEVTALYDCAAEGTTNRGVYASYDYWGQGTQVTVSS,low polyreactivity
10,QVQLVESGGGLVQAGGSLRLICAASGRIFGFNAMGWYRQAPGKERELVAAISGRSGRTYYADSVKGRFTISRDNAKITVYLQMNSLKPEDTAVYYCNTVGYRGPSWYDYWGQGTQVTVSS,high polyreactivity
11,QVQLVESGGGLVQAGGSLRLSCAASGSTFSLNAMGWYRQAPGKERELVAAITRSGGSTYYADSVKGRFTISRDNAKNTVYLQMNSLKPEDTAVYYCAALPRWSHRYDDWGQGTQVTVSS,high polyreactivity
12,QVQLVESGGGLVQAGGSLRLSCAASGGTFSRNVMGCYRPAPGKERELVSAISRRGSSTYYADSVKGRFTISRDNAKNTVFLQMNSLKPEDTAVYYCARDQFTGADEAGDDYWGQGTQVTVSS,high polyreactivity
13,QVQLVESGGGLVQAGGSLRLSCAASGITYTVYAMGWYRQAPGKERELVAVINESGGSTYYADSVKGRFTISRDNAKNTVYLQMNSLKPEDTAVYYCNKTRVYVSSTYDYWGLGTQVTVSS,low polyreactivity
14,QVQLVDSGGGLVQAGGSLRLSCAASGFIFVDYVMGWSRQAPGKERELVAAITRGGSTNYADSVKGRFTISRDNAKNTVYLQMNSLKPEDTAVYYCAVRWYRKYNYWGQGTQVTVSS,high polyreactivity
15,QVQLVESGGGLLQAGGSLRLSCAASGRIFGSYAMGWYRQAPGKERELVAGIRSVGSTNYADSVKGRFTISRDNAKNTVYLQMNSLKPEDTAVYYCAARLWHLSYAGQGGDYWGQGTQVTVSS,low polyreactivity
16,QVQLVESGGGLVQAGGSLRLSCAASGFIFSEYAMGWYRQAPGKDMELVAAISSGGNTYYADSVKGRFTISRDNAKNTVYLQMNSLKTEDTAVYYCNADNYAFYTQRPLDGSATYDYWGQGTQVTVSS,low polyreactivity
17,QVQLVESGGGLVQAGGSLRLSCAASGSILGIYGMGWYRQSRGKERELVAAISYSGGSTYYADSVKGRFSISRDNAKNTVYLQMNSLKPEDTAVYYCAADLTRGVSYYVDFYYWGQGTQVTVSS,low polyreactivity
18,QVQLVESGGGLVQAGGSLRLSCAASGSIFYQNALGWYRQAPGKETELVAAMSRSGGSTYYADSVKGRFTISRDNAKNTVYLQMNSLKPEDTAVYYCAARISRQRSYSRDYWGQGTQVTVSS,high polyreactivity
19,QVQLVESGGGLVQAGGSLRLSCAASGSIIHYTMGWYRQAPGKERELVAAISKSGGSTYYADSVKGRFTISRDNAKNTVYLQMNSLKPEDTAVYYCAAVGYYAWTFGYDYWGQGTQVTVSS,high polyreactivity
20,QVQLVESGGGLVQAGGSLRLSCAASGFTFRQNAMGWYRQAPRKERELVAAISSGGRTKYADSVKGRFTISRDNANNTVYLHMNSLKPEDTALYYCAADKRVYTQLNDSWGQGTQVTVSS,high polyreactivity
21,QVQLVESGGGLVQAGGSLRLSCAASGITSPSYAMGWYRQAPGKERELVAAISTSGGDTYYADSVKGRFTISRDKAKNTVYLQMNSLKPEDTAVYYCAAPVPAYQYYYRLKSFGRRYDHWGQGTQVTVSS,low polyreactivity

row,Sequence,polyreactivity (PSR sort gate)
1,QIQLVESGGGLVQAGGSLRLSCAASGSTLPDYAMGWYRQAPGKERELVADITARGGTYYADSVKGRFTISRDNAKNTVYLQMNSLKPEDTAVYYCAARISGRWYEYWGQGTQVTVSS,high polyreactivity
2,QVQLVESGGGLVQAGGSLRLSCAASGSIFSDYAMGWYRQAPGEERELVAAINSGVSTSYADSVKGRFTISRDNAKNTVYLQMNSLKPEDTAVYYCAKDGSSPSPWYGGFGYWGQGTQVTVSS,low polyreactivity
3,QVQLVESGGGLVQAGGSLRLSCAASGSIFPSYAIGWYRQAPGKERELVATIGRGGTTNYADSVKGRFTISRDNAKNTVYLQMNSLKPEDTSVYYCNAERIWRYKYGYDYWGQGTQVTVSS,high polyreactivity
4,QVQLVESGGGLVQAGGSLRLSCAASGLIFNLNAMGWYSPAPGKEREFVATITGIGGSTYYADSVKGRFTISRDNAKNTVYLQMNSLKPEDTAVYYCAADAWFVPYNYWGQGTQVTVSS,low polyreactivity
5,QVQLVESGGGLVQAGGSLRLSCAASGRTFQWYAMGWYRQAPGKERELVAAISWGGGRTYYADSVKGRFTISRDNAKNTVYLQMNSLKPEDTAVYYCAASYRKLPDKKRYGYWGQGTQVTVSS,high polyreactivity
6,QLQLVESGGGLVQAGGSLRLSCAASGSTFGPYAMGWYRQAPGKDRELVASITRSGGDTYYADSVKGRFTISRDNAKNSVYLQMNSLKPEDTAVYYCNKASHANEFGYWGQGTQVTVSS,high polyreactivity
7,QVQLVESGGGLVQAGGSLRLSCAASGITFQSNTMGCYRQAPGKERELVAAITWTGGRTYYADSVKGRFTISRDNAKNTVYLQMNSLKPEDTAVYYCNADGYAIGYNGKLDYWGQGTQVTVSS,high polyreactivity
8,QVQLVESGGGLVQAGGSLRLSCAASGRTFVPYAMGRYRQAPGKERELVAAISSSGGSTYYADSVKGRFTISRDNAKNTVYLQMNSLKPEDTAVYFCAAKSRKGGDYWGQGTQVTVSS,high polyreactivity
9,QDQLVESGGGLVQAGGSLRLSCAASGSIIYAYAMGWYRQAPGKERELVAAISWTGGSTYYADSVKGRFTISRDNAKNTVYLQMNCLKPEDTAVYYCAATYYQVASFYVTRYDYWGQGTQVTVSS,low polyreactivity
10,QVQLVESGGGLVQAGGSLRLSCAASGSIFAFYAMGWYRQAPGKERELVAVISVSDGSTYYADSVKGRFTISRDNAKNTVYLQMKSLKAEDTAVYYCAATPRGSYGYYYWGQGTQVTVSS,low polyreactivity
11,QVQLVESGGGLVQAGGSLRLSCAASGFIFPDYGMGSYRQAPGKERELVAAIYRNGVSTYYADSVKGRFTISRDNAKNTVYLQMKSLKPEDTAVYYCAARFYRIRRVSKSGYYWGLGTQVTVSS,low polyreactivity
12,QVQLVESGGGLVQAGGSLRLSCAASGFTFALYAMGWYRQAPGKERELVAAITKGGGSTYYADSVKGRFTISRDNAKITVYLQMNSLKPEDTAVYYCAARGRYSAPDYGYWGQGTQVTVSS,high polyreactivity
13,QVQLVESGGGLVQAGGSLRLSCAASGSTFQWYAMGWYRQAPGKERELVAGITRTGSTYYADSVKGRFTISRDNAKNTVYLQMNSLKPEDTAVYYCAAKWHTASGKYYYWGQGTQVTVSS,high polyreactivity
14,QVQLVESGGGLVQAGGSLRLSCAASGRIFYYYAMGWYRQAPGKERELVAVISRGGRTKYADSVKGRFTISRDNAKNTVYLQMNSLKPEDTAVYYCAAYPSYYGDSGLRYDYWGQGTQVTVSS,high polyreactivity
15,QVQLVESGGGLVQAGGSLRLSCAASGSTFYKNSMGWYRQAPGKERELVATISASSTSTYYADSVKGRFTISRDNAKNTVYLQMNSLKPEATAVYYCSKVYVHGSTYGYYWYGYDYWGQGTQVTVSS,low polyreactivity
16,QVQLVESGGGLVQAGGSLRISCAASGSTFSRNVMGWYRQAPGKERELVAAISRGGSTNYADSVKGRFTISRDNAKKTVYLQMNSLKTEVTAVYYCNAPRLGKFYYWGQGTQVTVSS,low polyreactivity
17,QVQLVESGGGLVQAGGSLRLSCAASGSIFTKYVMGWYRQAPGKERELVAAITYRGGSTYYADSVKGRFTISRDNAKNTVYLQMNSLKPEDTAVYDCAAEYYRYKYTAYRTDDYWGQGTQVTVSS,high polyreactivity
18,QVQLVESGGGLVQAGGSLRLSCAASGSTFRANAMGWYRQAPGKERELVAAISQSGGITYYADSVKGRFTISRDNAKNTVYLQMNSLKPEDTAVYYCAALGYRIKRGRFYYWGQGTQVTVSS,high polyreactivity
19,QVQLVESGGGLVQAGGSLRLSSAASGSTFAYYAMGWYRQEPAKEGELVASISWRGGSTYYADSVKGRFTISRDNAKNTVYLQMNSLKPEDTAVYYCAARSTYRPWLLSAYGYWGQGTQVTVSS,low polyreactivity
20,QVQLVESGGGLVQAGGSLRLSCAASGRTSARYGMGWYRQAPGKERELVASIRRSGDSTYYADSVKGRFTISRDNAKNTVYLQMNSLKPEDTAVYYCAAGGKQGKRDYWGQGTQVTVSS,low polyreactivity
